Reference: PMC4245933

How the values were obtained:
[1] = target: T1, His-KDM4D-FL (human, UniProt Q6B0I6 1-523); assay: EMSA
T1 sequence: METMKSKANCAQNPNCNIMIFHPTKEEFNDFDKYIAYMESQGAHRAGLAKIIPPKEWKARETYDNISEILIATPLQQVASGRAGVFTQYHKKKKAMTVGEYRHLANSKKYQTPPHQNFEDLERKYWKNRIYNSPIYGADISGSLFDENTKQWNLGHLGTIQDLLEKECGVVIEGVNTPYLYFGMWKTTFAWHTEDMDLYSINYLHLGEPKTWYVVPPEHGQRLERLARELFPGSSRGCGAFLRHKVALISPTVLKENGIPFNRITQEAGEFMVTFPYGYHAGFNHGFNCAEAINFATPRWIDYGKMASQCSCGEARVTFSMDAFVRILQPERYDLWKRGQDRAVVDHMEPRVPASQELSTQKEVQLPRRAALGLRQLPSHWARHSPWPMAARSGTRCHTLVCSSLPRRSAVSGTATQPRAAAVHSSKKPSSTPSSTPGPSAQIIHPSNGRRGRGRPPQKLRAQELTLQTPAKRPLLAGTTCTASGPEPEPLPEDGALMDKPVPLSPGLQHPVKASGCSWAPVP

[2] = target: T2, His-KDM4D-FL-1H4R-HRK (human, UniProt Q6B0I6 1-523, H115A;R123A;K127A;H219A;R222A;R225A;R228A;R236A); assay: EMSA
T2 sequence: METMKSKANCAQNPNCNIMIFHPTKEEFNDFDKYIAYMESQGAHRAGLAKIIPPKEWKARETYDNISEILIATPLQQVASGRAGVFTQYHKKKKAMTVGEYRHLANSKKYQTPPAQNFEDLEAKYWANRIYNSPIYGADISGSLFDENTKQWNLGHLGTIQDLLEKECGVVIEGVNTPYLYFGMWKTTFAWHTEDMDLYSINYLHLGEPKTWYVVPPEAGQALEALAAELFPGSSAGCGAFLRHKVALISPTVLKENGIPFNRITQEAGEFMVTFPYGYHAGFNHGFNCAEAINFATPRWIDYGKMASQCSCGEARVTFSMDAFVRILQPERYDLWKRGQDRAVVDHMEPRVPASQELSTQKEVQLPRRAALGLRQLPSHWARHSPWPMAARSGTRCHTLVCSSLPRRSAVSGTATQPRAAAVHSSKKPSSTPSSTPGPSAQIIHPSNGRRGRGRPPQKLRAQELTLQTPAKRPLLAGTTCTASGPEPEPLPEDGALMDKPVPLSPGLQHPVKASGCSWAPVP

[3] = target: T3, GST-KDM4D348-523 (human, UniProt Q6B0I6 348-523); assay: EMSA
T3 sequence: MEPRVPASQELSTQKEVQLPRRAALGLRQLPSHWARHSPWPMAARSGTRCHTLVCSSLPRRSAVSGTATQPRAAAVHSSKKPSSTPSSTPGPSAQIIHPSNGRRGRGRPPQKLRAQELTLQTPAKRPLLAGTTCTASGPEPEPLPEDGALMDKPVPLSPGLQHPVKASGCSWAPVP

[4] = target: T4, His-KDM4D1-350 (human, UniProt Q6B0I6 1-350); assay: EMSA
T4 sequence: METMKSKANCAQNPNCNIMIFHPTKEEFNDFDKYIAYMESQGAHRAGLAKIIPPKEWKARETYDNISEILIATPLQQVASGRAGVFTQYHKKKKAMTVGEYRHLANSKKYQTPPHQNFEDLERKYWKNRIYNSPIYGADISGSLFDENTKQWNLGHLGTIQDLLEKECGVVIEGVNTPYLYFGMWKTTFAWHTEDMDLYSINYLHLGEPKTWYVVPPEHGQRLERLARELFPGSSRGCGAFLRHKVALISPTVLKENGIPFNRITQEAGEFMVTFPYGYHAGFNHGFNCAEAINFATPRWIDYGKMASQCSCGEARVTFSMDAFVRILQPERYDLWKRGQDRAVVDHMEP

[5] = target: T5, His-KDM4D-N202M (human, UniProt Q6B0I6 1-523, N202M); assay: EMSA
T5 sequence: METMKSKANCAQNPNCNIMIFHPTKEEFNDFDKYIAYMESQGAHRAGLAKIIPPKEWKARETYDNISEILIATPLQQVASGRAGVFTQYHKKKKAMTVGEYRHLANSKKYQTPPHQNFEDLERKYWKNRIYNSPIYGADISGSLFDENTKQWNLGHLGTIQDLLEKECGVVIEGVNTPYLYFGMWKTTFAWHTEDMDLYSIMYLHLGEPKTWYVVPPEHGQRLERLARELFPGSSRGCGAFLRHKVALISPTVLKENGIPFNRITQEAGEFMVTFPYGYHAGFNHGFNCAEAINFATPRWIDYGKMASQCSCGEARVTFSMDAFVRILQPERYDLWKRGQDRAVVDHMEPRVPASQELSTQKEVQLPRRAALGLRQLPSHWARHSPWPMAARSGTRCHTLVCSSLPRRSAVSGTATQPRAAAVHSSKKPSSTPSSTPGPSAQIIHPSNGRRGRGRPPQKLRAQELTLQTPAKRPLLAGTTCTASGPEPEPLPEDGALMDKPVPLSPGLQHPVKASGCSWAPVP

[6] = target: T1, His-KDM4D-FL; assay: fluorescence anisotropy
[7] = target: T4, His-KDM4D1-350; assay: fluorescence anisotropy
[8] = target: T6, His-KDM4D1-350-1H4R-HRK (human, UniProt Q6B0I6 1-350, H115A;R123A;K127A;H219A;R222A;R225A;R228A;R236A); assay: fluorescence anisotropy
T6 sequence: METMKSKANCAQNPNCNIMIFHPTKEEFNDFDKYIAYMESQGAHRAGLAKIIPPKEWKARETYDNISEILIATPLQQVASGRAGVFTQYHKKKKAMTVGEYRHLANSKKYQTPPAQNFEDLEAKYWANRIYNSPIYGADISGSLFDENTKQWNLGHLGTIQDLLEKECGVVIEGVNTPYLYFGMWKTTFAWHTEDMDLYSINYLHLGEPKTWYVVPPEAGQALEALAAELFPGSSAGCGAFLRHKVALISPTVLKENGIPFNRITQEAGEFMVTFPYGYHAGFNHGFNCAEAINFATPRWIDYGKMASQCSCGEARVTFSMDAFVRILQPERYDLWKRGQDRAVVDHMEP

B1: 37nt RNA (ssRNA)
RNA: GGGCGAAUUGGGCCCGACGUCGCAUGCUCCCGGCCGC
- Kd [1]: < 50 nM

B2: 100nt RNA (ssRNA)
RNA: GGGCGAAUUGGGCCCGACGUCGCAUGCUCCCGGCCGCCAUGGCGGCCGCGGGAAUUCGAUUAGUUCCCCUAAUAAUCGGUGCCCCCGAUAUGGCGUUUA
- Kd [1]: ~20 nM
- Kd [2]: > 100 nM
- Kd [3]: > 100 nM
- Kd [4]: ~80 nM
- Kd [5]: ~15 nM

B3: 22nt RNA (RNAF-22) (ssRNA)
RNA: UUAACACAAAAUACGCACCCCA
- Kd [6]: ~126 nM
- Kd [7]: ~1220 nM
- binding result [8]: no binding
